Biological target: full-length recombinant H7 hemagglutinin (rH7) of A/Anhui/1/2013 (H7N9) virus (influenza A virus A/Anhui/1/2013 (H7N9))
Experiment: SEC

Substance: full-length recombinant H7 hemagglutinin (rH7) of A/Anhui/1/2013 (H7N9) virus (natural protein)
- stoichiometry N: 3

Reference: PMC4562812
